Experimental findings from patent US20200222478A1 (published 2020) are described below.

Experiment in all cases: UV peptide exchange + HLA class I ELISA
In general terms: In an ELISA, binding on a coated surface is turned into a signal by an enzyme label.

One experiment concerns the target T1, HLA-A*24:02 (human, biotinylated heavy chain).
T1 construct: Conditional HLA class I complex first loaded with a UV-labile peptide, exchanged for the test peptide after UV; also called conditional HLA class I complex

Another experiment has as its target T2, HLA-A*01:01 (human, biotinylated heavy chain).
T2 construct: Conditional HLA class I complex first loaded with a UV-labile peptide, which is cleaved by UV and exchanged for the test peptide; captured on streptavidin by its biotinylated heavy chain; also called conditional HLA class I complex

For the next experiment, the target named is T3, HLA-B*07:02 (human, biotinylated heavy chain).
T3 construct: Conditional HLA class I complex first loaded with a UV-labile peptide, exchanged for the test peptide after UV; also called conditional HLA class I complex

For a further experiment, the target named is T4, HLA-B*08:01 (human, biotinylated heavy chain).
T4 construct: Conditional HLA class I complex first loaded with a UV-labile peptide, exchanged for the test peptide after UV; also called conditional HLA class I complex

Another experiment has as its target T5, HLA-A*03:01 (human, biotinylated heavy chain).
T5 construct: Conditional HLA class I complex first loaded with a UV-labile peptide, exchanged for the test peptide after UV; also called conditional HLA class I complex

In the next experiment the target is T6, HLA-A*02:01 (human, biotinylated heavy chain).
T6 construct: Conditional HLA class I complex first loaded with a UV-labile peptide, exchanged for the test peptide after UV; also called conditional HLA class I complex

Procedure for HLA-A*01:01: (§1) The HLA class I ELISA is an enzyme immunoassay based on the detection of beta2-microglobulin (B2M) of (peptide-stabilized) HLA class I complexes. To this end streptavidin was bound onto polystyrene microtiter wells. […] Non-bound material was removed by washing. Subsequently, horseradish peroxidase (HRP)-conjugated antibody to human B2M was added. […] In the latter case B2M was removed during the washing step. After removal of non-bound HRP conjugate by washing, a substrate solution was added to the wells. A coloured product formed in proportion to the amount of intact HLA complex present in the samples. After the reaction was terminated by the addition of a stop solution, absorbance was measured in a microtiter plate reader.
Procedure for HLA-A*02:01: as §1
Procedure for HLA-A*03:01: as §1
Procedure for HLA-A*24:02: as §1
Procedure for HLA-B*07:02: as §1
Procedure for HLA-B*08:01: as §1

Consider IQYSCMGLM [P50 9-mer peptide (AR (W742C))], for which the “exchange rate vs Pos peptide” value worked out at 0.1% with HLA-A*24:02; 2.3% with HLA-A*01:01; 10.4% with HLA-B*07:02; 4.7% with HLA-B*08:01; 5.5% with HLA-A*03:01; 8.8% with HLA-A*02:01.
With GVLRRLLCR [P37 9-mer peptide (TSTD1-F11R fusion)], the “exchange rate vs Pos peptide” value with HLA-A*24:02 was -0.1%; in the experiment with HLA-A*01:01, 1.4%; with HLA-B*08:01, 3.3%; with HLA-A*03:01, 6.4%; with HLA-A*02:01, 12.5%.
Regarding NSKMALNSL [P35 9-mer peptide (TMPRSS2-ERG fusion)], the “exchange rate vs Pos peptide” value with HLA-A*24:02 was 0.2%; in the experiment with HLA-A*01:01, 2.5%; with HLA-B*07:02, 12.1%; with HLA-B*08:01, 13.7%; in the experiment with HLA-A*03:01 it was 4.2%; with HLA-A*02:01, 12.5%.
For the molecule STRRAVRRM (Synthetic 9-mer fragment) [P16 9-mer peptide (MSMB-NCOA4 fusion)], the “exchange rate vs Pos peptide” value was 0.8% with HLA-A*24:02; 5.5% with HLA-A*01:01; 13.7% with HLA-B*07:02; 6.2% in the experiment with HLA-B*08:01; 6.1% with HLA-A*03:01; 10.4% with HLA-A*02:01.
FPVGAEGTF [P27 9-mer peptide (FAM126B-ORC2 fusion)]: the “exchange rate vs Pos peptide” value in the experiment with HLA-A*24:02 came out at 0.7%; with HLA-A*01:01, 4.8%; with HLA-B*07:02, 7.8%; in the experiment with HLA-B*08:01, 6.4%; with HLA-A*03:01, 4.5%; in the experiment with HLA-A*02:01 it was 10%.
As for NMVENGCYL [P59 9-mer peptide (FOXA1 (F254V))], the “exchange rate vs Pos peptide” value is -0.5% in the experiment with HLA-A*24:02; 2.2% with HLA-A*01:01; 7.5% in the experiment with HLA-B*07:02; 5.5% with HLA-B*08:01; 4.5% with HLA-A*03:01; 11.9% with HLA-A*02:01.
In the case of FFKRAAEGF [P77 9-mer peptide (AR-V3 splice variant)], the “exchange rate vs Pos peptide” value in the experiment with HLA-A*24:02 worked out at 1.7%; in the experiment with HLA-A*01:01 it was 1.9%; with HLA-B*07:02 it was 14.2%; with HLA-B*08:01 it was 3.4%; with HLA-A*03:01, 2.8%.
